Reference: patent publication US5843750A, “Sorbitol kinase, process for producing the same, and substantially pure microorganism” (priority 1994, dated 1998)

Legend:
[1] = Isoelectric point of sorbitol kinase (electrophoresis using carrier ampholytes); assay type: physicochemical, Erwinia sp. SK-472-20
From the text: 4.8±0.5 (electrophoresis using carrier ampholytes)

[2] = Physico-chemical properties of sorbitol kinase produced by the transformant; assay type: physicochemical, Erwinia sp. SK-472-20 gene expressed in E.coli; details: enzyme produced by transformant
[3] = Optimum pH/temperature, pH stability and heat stability of sorbitol kinase; assay type: physicochemical, Erwinia sp. SK-472-20
Description: One milliliter of a reaction mixture consisting of 0.2M Tris-HCl buffer solution (pH 8.5) 0.2 ml, 0.1M ATP 0.02 ml, 0.1M MgCl2 0.02 ml, 100 U/ml sorbitol-6-phosphate dehydrogenase (refer to referential example) 0.05 ml, 10 mM NAD 0.1 ml, 100 U/ml diaphorase (Asahi Chemical Ind. Co.) 0.05 ml, 0.25% NTB 0.1 ml, 1M sorbitol 0.1 ml, 10% Triton X-100 0.01 ml and distilled water 0.3 ml was pre-heated at 37° C. for 1 minute, and the enzyme solution 20 μl was added thereto, then the mixture was incubated for 10 minutes.
Reaction was terminated by adding 0.1N HCl 2 ml and optical density of the mixture was measured using 1.0 cm cell at 550 nm within 5 minutes (As). Also optical density of distilled water 20 μl in place of the enzyme solution was measured in the same manner as above as a blank test (Ab). Enzymatic activity is determined by difference in the absorption between the optical density of the enzyme solution (As) and the blank test (Ab), i.e. (As-Ab). A unit of enzyme activity is defined as an amount of enzyme which generate 1 μm of reduced NAD in one minutes at 37° C. and calculated by the following equation.
Optimum pH is measured by the above enzyme assay method. In FIG. 1, 100 mM phosphate buffer is used for pH 6.0-8.0 (-.largecircle.-); 100 mM Tris-HCl buffer for pH 7.0-9.0 (-.circle-solid.-); and 100 mM glycine-sodium hydroxide buffer for pH 9.0-10.5 (-.quadrature.-). Optimum pH is 8.5-9.5.
100 mM buffer solutions containing sorbitol kinase 0.5 U/ml were treated at 60° C. for 15 minutes, and remaining activity was measured by the above enzyme assay method. In FIG. 2, 100 mM acetate buffer is used for pH 4.5-6.0 (-.largecircle.-); 100 mM phosphate buffer for pH 6.0-8.0 (-.circle-solid.-); 100 mM Tris-HCl buffer for pH 7.0-8.5 (-.quadrature.-); and 100 mM glycine-sodium hydroxide buffer for pH 9.0-10.5 (-.box-solid.-). Most preferable stability is observed at pH 6.5-10.0.
Optimum temperature of the enzyme was measured by changing temperature range at 37° C.-60° C. according to the above assay method. Result is shown in FIG. 3, in which optimum temperature of the present enzyme is approx. 50° C.
100 mM Tris-HCl buffer solution (pH 8.5) containing sorbitol kinase 0.5 U/ml was treated at various temperatures for 15 minutes, and remaining activity was measured by the above enzyme assay method. Results are shown in FIG. 4 in which the enzyme is stable at least up to 60° C.

B1: sorbitol kinase: ATP-utilizing sorbitol kinase of Erwinia sp. SK-472-20, stable up to 60° C., amino acids 1 to 313 of SEQ ID NO: 1; also produced by E.coli transformant (protein)
chain: MRIGIDLGGTKTEVIALSEQGEQLFRHRLPTPRDDYHQTIETIARLVDMAEQATGQTGTVGMGIPGSISPYTGVVKNANSTWLNGQPFDKDLSQRLNREVRLANDANCLAVSEAIDGAAAGAQTVFAVIIGTGCGAGVALGGRAHIGGNGTAGEWGHNPLPWMDEDELKYRAEVPCYCGKQGCIETFISGTGFATDYHRLSGQPLKGNEIMRRVGEHDPVAELALSRYEMRLAKSLAHVVNILDPDVIVLGGGMSNVDRLYATVPNLVKQWVFGGECETPIRKRCTGTPAACAAPRGSGRYSHSPSPYVRGAG
Isoelectric point [1]: 4.8±0.5
Heat stability (stable up to) [2]: up to 60 °C
Isoelectric point [2]: 4.80±0.5
Optimum pH [2]: 8.5-9.5
pH stability [2]: 6.5-10.0
Heat stability (stable up to) ([3]; 100 mM Tris-HCl pH 8.5, 0.5 U/ml, 15 minutes, remaining activity, FIG. 4): ≥ 60 °C
Optimum pH ([3]; 100 mM phosphate, Tris-HCl, glycine-sodium hydroxide buffers, FIG. 1): 8.5-9.5
pH stability (most preferable stability) ([3]; 0.5 U/ml in 100 mM buffers, 60° C. for 15 minutes, remaining activity, FIG. 2): 6.5-10.0
Optimum temperature ([3]; range 37° C.-60° C., FIG. 3): approx. 50 °C
